In the supplement of paper PMC9170038:

System: K4 kissing-loop RNA reporter
Assay: apparent KD of K4 kissing-loop reporter; higher = weaker reporter binding
Conditions: Eterna round: R107; input ligand: none
Procedure: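 RNA-MaP round R107: designed RNA switches with theophylline, tryptophan, arginine or FMN aptamers are transcribed on-chip within common flanks. They are titrated with a labelled K4 kissing-loop RNA reporter in RNA-MaP buffer (100 mM Tris pH 7.5, 80 mM KCl, 4 mM MgCl2), without ligand or with the indicated ligand. Median apparent KD per design.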
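Further: bound reporter read as fluorescence of individual clusters on recovered sequencing chips by microscopy, with normalized cluster intensities fitted with a binding model.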

Sequence | apparent KD of K4 kissing-loop reporter [nM]
UAGGAGUGAUGUUCCAUAUGUAAGGCCGAAGGAGCGGCAUUAUAGCCAGGUAGGUCGCGGCAGUACGUACCAGUGAUGUUGGAAA [KL-SSArg-A5] | 150
CCGCUACCCUCAGGAUAUUAAUAUGGAGUGAUGUUCUAUGUCCGAUGGCGGAAACGCCAUCGGGAAUAAGAAGGGAGGGUAGCGG | 482
AGCCGAAAGGCGAGUGCUGUCACUCCGGAAGGAGCGGCGAAAACGCCAGGUAGGUCGCCGGAGUGAUGUUCCGGUGCAGCACUCA [Omei KL Arginine A Exc B v2] | 932
AGCAAUAUCACGGCCGCCACUGAAUAUUGUUUUUAUAUUUAGAAAUCUUGCCAGUGAUGUUGGUUCAGGACCGGGUGAGUUAAUA [JR_SSTryptoB_Sub005] | 466
GGGCGCGGCGCGGCCGCCACUGCGCCUGGGUGCUCGCCGAGUGAUGUUCGUCGGCGGUUGGGUGGCAGGACCGGGUGCCGGCCCG [BDazzled - #17 SS Tryptophan B] | 3280
AUUACAUCUGAAAAGCUAGUGAUGUUAGCUCGAGGACCGGUACGGCCGCCACUCGCAUAGCGAGGCCAAGUCGCGGUUAACGGAG [theeternabot_exclusion_KL_Trp_A_4] | 97.2
UGAUACCAGACUGAUACCAGCGAGUGAUGUUCGCUGAAAUCAGGGUCAAAGACCCUGUCUCGCCCUUGGCAGCAGUCUGGUAUCU [TheoBX 20 #SwitchBubble #StaticStem] | 133
UGGAUAUAGUGAUGUUAUAUAGAGAUGGAUACCAGCUAAGAGAAUAGCCCUUGGCAGCCGAAAGAAGUAUCAUUAGAGAAGAAUG [ExTheophyl.Ae] | 280
UGACAUUGCUCAGAUACCAGACAUGAGCAUCAGCCAUGUGCCAAAACGUACUAAAUAAAUGUCCCUUGGCAGCUGAGCAAUGUCU [TheoBX 13] | 40.7
CUUGAUGUAGCGGCCGCCACUCUAGAUCCGCAUCGGAUGAGGUACUUGAAGUGAUGUUUUGAGGUGAGGACCGGGCUCUAAAGAA [theeternabot_sameState_KL_Trp_B_16] | 564
AAAAUAAACCAGUGAUGUUGGUGUCCAGAUACCAGCGAUAAAAUUCGCCCUUGGCAGCUGUGGACGUACAAAAUAAGUACGUCCU [MatMod 3 - Jieux - Same State - Theophylline A] | 837
CCGUAUGUCCACUAUUGAGUGAUGUUCAAGCGAGGACCGGUACGGCCGCCACUCGCGUUACCCACCACGUGUCGCCGCACUUACC [theeternabot_exclusion_KL_Trp_A_42] | 203
CCGGCCCAGCCGGAUACCAGUGCGCCGCAGGGAACGGCGGGCCCAGAGUGAUGUUCGGGACACCCUUGGCAGCCGCCUGGGUCCC [#2 Same State - Theophylline B Attempt #30 (HarryS)] | 669
GCUCAUCCGGCAGGAUAUAGGCAGGUAGAGUGAUGUUCGAACUGCAGUUAUCCAUCCUUCUACCUACUAGAAGGGCCGGAUGAGC | 209
GACGUGCGAGAGACCGCUCUACCUUGAGAUCGAGGACCGGUACGGCCGCCACUCGGUGUUUAACGUCGAUCCCAGUGAUGUUGGA [theeternabot_sameState_KL_Trp_A_21] | 429
GCCGUACGCAUGGAUACCAGAGAUGUUAAUCUCGAUGCCAGUGAUGUUGGCUUUAGCAUACUCCCUUGGCAGCCAUGCGUACGGC | 292
CGAGAAAGAGCGACUGGCGAUCUGUCUGAAGGAGCGGGUGCUAGCCCAGGUAGGUCGCAGACUUUGACGCCAGUGAUGUUGGCGG [Titidiisxe] | 222
UAUAGAGUGACGGCCGCCACUAUUGUGAUUUAAUUGUUAGAGUGAUGUUUUGUUGUUUGAUUUUGUAGGACCGGGUUAUAUGUUA [ecewzmullin] | 976
UGCGCUGUGUCCUAAAAUGUCCUCCGGGAUACCAGAGUCUUUUUAUUCCCUUGGCAGCUUGAGUGAUGUUUGAUGCCGUUCUUGU [xxbxymullin] | 790
UCGCGUCUGUGAGGAUAUCAGAACAGAGUGAUGUUCUGUCAACGCCCAGUGAUGUUGGAUGCGAUCUGAGAAGGCACUGGGCGCA [Same State FMN B GF 9] | 1320
CUUGUACAUGCCGAGGUAGGUGCGGGUUAGCGAGGACCGGUACGGCCGCCACUCGCCAAGUGAUGUUUGGUCCUUUGGAUCGGCA | 366

Same assay, conditions: Eterna round: R107; input ligand: theophylline 20 uM

Sequence | apparent KD of K4 kissing-loop reporter [nM]
CAACGAGUGAUGGUCGUUGACGGCCAUCCCGAGGAUAUGGGAUUUUCCAGAAGGCGGGAUCGCCCGGAGUGAUGUUCCGUGAUUU [Same State FMN A GF 15] | 221
UUUUAAAUGUCUGAUACCAGAGAAAAUAUAUGUAGUGAUGUUAUAUACAAAAUAAAUAAGCUCCCUUGGCAGCAGUAUUAAUUUU [AstrosExc-TheB#6] | 725
AAAGAUGCGUCGGCCGCCACUGUGAUCUACGAAAGUAGUAUGUAGAUGCAGUGAUGUUGCAUUUUCAGGACCGGGACGUAAGAUG [3rd] | 496
AAUUCAGUGAUGUUGGAAGGCAGGCGGGAUACCAGCGGAGAAUAACGCCCUUGGCAGCCCAAAUAUCCCAAAUAGAUAAUAGUUC [Same State - Theophylline A (Freestyle 2)] | 475
GGUGCUGUUUGUGCCGCCUUCCUCGUUCCUCGAGGACCGGUACGGCCGCCACUCGAGUGAUGUUUGGGUAGCGAUCCCUGCUAGU [Bdazzled - #13 Exc. Tryptophan A] | 658
UUAGGAGUGGGAGGAUAUCCUAAUAUGGGUGAUGUUAGCGAUGUUGAAAGUGUAGUGAUGUUGUGCGGAGAAGGUCCAGUGUUGA [BDazzled - #13 - Exc. FMN B] | 222
UUCGAAAGUCGAAGGAGCGCUGUCGGUCAUAGACCAUAUCUGUAGUGAUGUUACAGAUGACAGCAGGUAGGUCGCGACAGAGACA [Arg B SS t18] | 144
GUGCGCGGUGCGGCCGCCACUCGGAUGCGAGUGAUGUUCGCGGGACGGACGCAAGUCCGUCAUUCGAGGACCGGGCAUGGCUGUA [#2 Same State - Tryptophan B Attempt #5 (HarryS)] | 252
UGUACCGAGUCAGGAUAUCAUAAUAAAUCCAGUGAUGUUGGAAUAACCAGUACAAAGUACUGGCCUUGAGAAGGGACUUGGUACU [FmnBS 3 #SwitchBubble #StaticStem] | 147
AGGCACGAGCAAGGAUAUUGAGUAGAGUGAUGUUCUGCCUGGGUUGGCUCGAAAGAGCCUUCUCAGCGAGAAGGUGCUCGUGCCU [#2 Same State - FMN A Attempt #22 (HarryS)] | 367
AAAAUAAUCCAGUGAUGUUGGUAUUCAGAUACCAGCGACGAAAGUCGCCCUUGGCAGCUGUGGACGUACAAAAUAAGUACGUCCU | 944
CCGUGGAGUGAUGUUCCACGUACUACGGAUACCAGCUUUGCCAAAGGCCCUUGGCAGCCGCACGUUGCAGUGAUGUUGUGGCGCG [Same State Theophylline A G9] | 328
UGUUUUUACUGAAGGAGCGGCAAUUGAUACGUAGAUAUAGUGAUGUUAUAUAAGAUAGAGAGCCAGGUAGGUCGCAGAAUGUAUC [ExArgB.aC] | 252
UUGGCUGGACGGGAUACCAGCCAAAUCGUGGGCUUGGGAUGUCUAAGAGCCAGUGAUGUUGGCCCUUGGCAGCCCUCCCAGCUUG [Xerirala] | 75.5
UGUCAUUGGUCGGCCGCCACUUGAAGGUCAAAGACCAUAGAGUGAUGUUCUAAGACGAAAGUCACAAGGACCGGGACCGAUGACU [TrypBS 3 #SwitchBubble #K4Middle] | 265
UGUUAUGUAUCAGGAUAUUAGUGAUGUUUGUUGAUGUUAGUGAUGUUGAUAUUUGUUUUAUGUAUUUAAGAAGGGAUUGAGAUGU [ooilmullin] | 27.8

Sequence | apparent KD of K4 kissing-loop reporter [nM]
UUUAAAUAUAGUGAUGUUAUAUAACAAUGACGAGGACCGGUACGGCCGCCACUCGAGAGAGAUAAUGGUCAUACAAAUGUAUGUC [AstrosSSTryA#7] | 830
UUUUGGUACUGAGGAUAUUCGACGAAAUAUAGUGAUGUUAUAUAAGGAGGAGGAGGGUGGGAGGAAGGAGAAGGCAGAAGAGGAG [#06 K4 FMN B Exclusion] | 285
GAUGCCAUGAUCCUCCUGGUAUCGGGAGAUACCAGCGUGCUGACACGCCCUUGGCAGCUCCAUUCGAGAGUGAUGUUGUCGAGAA [KL-SSTheo-A8 #analogue] | 237
GGAUAGGACGGAGGAUAUGGUAGUGAUGUUACCAAACUGGUUAAACAUGUCAGAAAACUGGCAUGACCAGAAGGCUGUCCUAUCG [FmnBX 27 G10] | 67.5
GGCCGCAAGGCGAGCGCUCCCACUCCGGAAGGAGCGCCCGGAAGGGCAGGUAGGUCGCCGGAGUGAUGUUCCGGUGGAGGGCUCG [#2 Exclusion - Arginine A Attempt #18 (Inspired by Omei)] | 772
UAGGAGUGAUGUUCCAUAUGUAAGGCCGAAGGAGCGGCAUUAUAGCCAGGUAGGUCGCGGCAGUACGUACCAGUGAUGUUGGAAA [KL-SSArg-A5] | 119
CCGCUACCCUCAGGAUAUUAAUAUGGAGUGAUGUUCUAUGUCCGAUGGCGGAAACGCCAUCGGGAAUAAGAAGGGAGGGUAGCGG | 313
AGCCGAAAGGCGAGUGCUGUCACUCCGGAAGGAGCGGCGAAAACGCCAGGUAGGUCGCCGGAGUGAUGUUCCGGUGCAGCACUCA [Omei KL Arginine A Exc B v2] | 521
AGCAAUAUCACGGCCGCCACUGAAUAUUGUUUUUAUAUUUAGAAAUCUUGCCAGUGAUGUUGGUUCAGGACCGGGUGAGUUAAUA [JR_SSTryptoB_Sub005] | 450
GGGCGCGGCGCGGCCGCCACUGCGCCUGGGUGCUCGCCGAGUGAUGUUCGUCGGCGGUUGGGUGGCAGGACCGGGUGCCGGCCCG [BDazzled - #17 SS Tryptophan B] | 2140
AUUACAUCUGAAAAGCUAGUGAUGUUAGCUCGAGGACCGGUACGGCCGCCACUCGCAUAGCGAGGCCAAGUCGCGGUUAACGGAG [theeternabot_exclusion_KL_Trp_A_4] | 89.1
UGAUACCAGACUGAUACCAGCGAGUGAUGUUCGCUGAAAUCAGGGUCAAAGACCCUGUCUCGCCCUUGGCAGCAGUCUGGUAUCU [TheoBX 20 #SwitchBubble #StaticStem] | 185
UGGAUAUAGUGAUGUUAUAUAGAGAUGGAUACCAGCUAAGAGAAUAGCCCUUGGCAGCCGAAAGAAGUAUCAUUAGAGAAGAAUG [ExTheophyl.Ae] | 253
UGACAUUGCUCAGAUACCAGACAUGAGCAUCAGCCAUGUGCCAAAACGUACUAAAUAAAUGUCCCUUGGCAGCUGAGCAAUGUCU [TheoBX 13] | 73.3
CUUGAUGUAGCGGCCGCCACUCUAGAUCCGCAUCGGAUGAGGUACUUGAAGUGAUGUUUUGAGGUGAGGACCGGGCUCUAAAGAA [theeternabot_sameState_KL_Trp_B_16] | 452
